Among the data in the supplement of paper PMC6755084 are fraction ligated values, retold here.

The chains are these.
B1: F1*; the commonest letter at each place (parent)
chain: GAGACCGCAACTGAAAAGTTGTTATCACTTGTCGTAAGACACTTTGGATGGGTTGAAGTTCTGCACGTAGAAGCAAAAGGC

The series covers variants of B1. The series is described as follows: fraction ligated after 30 min (ligated reads / total reads); higher = more ligase activity. Conditions: with F1*sub RNA substrate (template-directed ligation), 42 °C. The method in brief: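 Templates from an oligo pool were PCR-amplified, transcribed with T7 and gel-purified to give the ribozyme variants. Ligated and unligated products were separated on gel, reverse transcribed using barcoded primers, and read on a MiSeq. A quality filter of ≥20 was applied to core bases. Fraction ligated was taken as ligated reads as a share of all reads per variant.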
For GAGACCGCAACTGAAAAGTTGTTATCACTTGTCGTAAGACGCTTTGAATGGGTTGAAGTTCTGCACGTAGAAGCAAAAGGC [A41G G47A], the fraction ligated was 0.734. Under GAGACCGCAACTGAAAAGTTGTTATCACTTGTCGTAAGACGCTTTGCATGGGTTGAAGTTCTGCACGTAGAAGCAAAAGGC [A41G G47C] stands 0.178; under GAGACCGCAACTGAAAAGTTGTTATCACTTGTCGTAAGACGCTTTGTATGGGTTGAAGTTCTGCACGTAGAAGCAAAAGGC [A41G G47T], 0.354.

Regarding GAGACCGCAACTGAAAAGTTGTTATCACTTGTCGTAAGACCCTTTGGATGGGTTGGAGTTCTGCACGTAGAAGCAAAAGGC [A41C A56G], the fraction ligated worked out at 0.561. For the variant GAGACCGCAACTGAAAAGTTGTTATCACTTGTCGTAAGACCCTTTGGATGGGTTGCAGTTCTGCACGTAGAAGCAAAAGGC [A41C A56C], the fraction ligated was 0.503. Under GAGACCGCAACTGAAAAGTTGTTATCACTTGTCGTAAGACCCTTTGGATGGGTTGTAGTTCTGCACGTAGAAGCAAAAGGC [A41C A56T] stands 0.615; under GAGACCGCAACTGAAAAGTTGTTATCACTTGTCGTAAGACCCTTGGGATGGGTTGAAGTTCTGCACGTAGAAGCAAAAGGC [A41C T45G], 0.0888; under GAGACCGCAACTGAAAAGTTGTTATCACTTGTCGTAAGACCCTTCGGATGGGTTGAAGTTCTGCACGTAGAAGCAAAAGGC [A41C T45C], 0.328. The value for GAGACCGCAACTGAAAAGTTGTTATCACTTGTCGTAAGACCCTTAGGATGGGTTGAAGTTCTGCACGTAGAAGCAAAAGGC [A41C T45A] was 0.55; that for GAGACCGCAACTGAAAAGTTGTTATCACTTGTCGTAAGACGCATTGGATGGGTTGAAGTTCTGCACGTAGAAGCAAAAGGC [A41G T43A] was 0.817; that for GAGACCGCAACTGAAAAGTTGTTATCACTTGTCGTAAGACGCGTTGGATGGGTTGAAGTTCTGCACGTAGAAGCAAAAGGC [A41G T43G] was 0.807.

GAGACCGCAACTGAAAAGTTGTTATCACTTGTCGTAAGACGCCTTGGATGGGTTGAAGTTCTGCACGTAGAAGCAAAAGGC [A41G T43C]: the fraction ligated was found to be 0.744. Turning to GAGACCGCAACTGAAAAGTTGTTATCACTTGTCGTAAGACGCTTTGGATGGGTTGATGTTCTGCACGTAGAAGCAAAAGGC [A41G A57T], the fraction ligated stood at 0.76. As to GAGACCGCAACTGAAAAGTTGTTATCACTTGTCGTAAGACGCTTTGGATGGGTTGACGTTCTGCACGTAGAAGCAAAAGGC [A41G A57C], the fraction ligated was 0.735.

As for GAGACCGCAACTGAAAAGTTGTTATCACTTGTCGTAAGACGCTTTGGATGGGTTGAGGTTCTGCACGTAGAAGCAAAAGGC [A41G A57G], the fraction ligated worked out at 0.787. For the variant GAGACCGCAACTGAAAAGTTGTTATCACTTGTCGTAAGACCCTCTGGATGGGTTGAAGTTCTGCACGTAGAAGCAAAAGGC [A41C T44C], the fraction ligated was found to be 0.769. With GAGACCGCAACTGAAAAGTTGTTATCACTTGTCGTAAGACCCTGTGGATGGGTTGAAGTTCTGCACGTAGAAGCAAAAGGC [A41C T44G], the fraction ligated amounted to 0.797. In the case of GAGACCGCAACTGAAAAGTTGTTATCACTTGTCGTAAGACCCTATGGATGGGTTGAAGTTCTGCACGTAGAAGCAAAAGGC [A41C T44A], the fraction ligated came to 0.764. Under GAGACCGCAACTGAAAAGTTGTTATCACTTGTCGTAAGACGATTTGGATGGGTTGAAGTTCTGCACGTAGAAGCAAAAGGC [A41G C42A] stands 0.85; under GAGACCGCAACTGAAAAGTTGTTATCACTTGTCGTAAGACGGTTTGGATGGGTTGAAGTTCTGCACGTAGAAGCAAAAGGC [A41G C42G], 0.803. Under GAGACCGCAACTGAAAAGTTGTTATCACTTGTCGTAAGACGTTTTGGATGGGTTGAAGTTCTGCACGTAGAAGCAAAAGGC [A41G C42T] stands 0.83; under GAGACCGCAACTGAAAAGTTGTTATCACTTGTCGTAAGACGCTTTGGATAGGTTGAAGTTCTGCACGTAGAAGCAAAAGGC [A41G G50A], 0.23; under GAGACCGCAACTGAAAAGTTGTTATCACTTGTCGTAAGACGCTTTGGATTGGTTGAAGTTCTGCACGTAGAAGCAAAAGGC [A41G G50T], 0.609. The value for GAGACCGCAACTGAAAAGTTGTTATCACTTGTCGTAAGACGCTTTGGATCGGTTGAAGTTCTGCACGTAGAAGCAAAAGGC [A41G G50C] was 0.119; that for GAGACCGCAACTGAAAAGTTGTTATCACTTGTCGTAAGACCCGTTGGATGGGTTGAAGTTCTGCACGTAGAAGCAAAAGGC [A41C T43G] was 0.76; that for GAGACCGCAACTGAAAAGTTGTTATCACTTGTCGTAAGACCCCTTGGATGGGTTGAAGTTCTGCACGTAGAAGCAAAAGGC [A41C T43C] was 0.766. GAGACCGCAACTGAAAAGTTGTTATCACTTGTCGTAAGACCCATTGGATGGGTTGAAGTTCTGCACGTAGAAGCAAAAGGC [A41C T43A]: the fraction ligated is 0.781. With GAGACCGCAACTGAAAAGTTGTTATCACTTGTCGTAAGACCGTTTGGATGGGTTGAAGTTCTGCACGTAGAAGCAAAAGGC [A41C C42G], the fraction ligated amounted to 0.826.

On to GAGACCGCAACTGAAAAGTTGTTATCACTTGTCGTAAGACCTTTTGGATGGGTTGAAGTTCTGCACGTAGAAGCAAAAGGC [A41C C42T], for which the fraction ligated worked out at 0.812. Turning to GAGACCGCAACTGAAAAGTTGTTATCACTTGTCGTAAGACCATTTGGATGGGTTGAAGTTCTGCACGTAGAAGCAAAAGGC [A41C C42A], the fraction ligated worked out at 0.844. With GAGACCGCAACTGAAAAGTTGTTATCACTTGTCGTAAGACGCTTTGGCTGGGTTGAAGTTCTGCACGTAGAAGCAAAAGGC [A41G A48C], the fraction ligated worked out at 0.736. Under GAGACCGCAACTGAAAAGTTGTTATCACTTGTCGTAAGACGCTTTGGGTGGGTTGAAGTTCTGCACGTAGAAGCAAAAGGC [A41G A48G] stands 0.76; under GAGACCGCAACTGAAAAGTTGTTATCACTTGTCGTAAGACGCTTTGGTTGGGTTGAAGTTCTGCACGTAGAAGCAAAAGGC [A41G A48T], 0.625; under GAGACCGCAACTGAAAAGTTGTTATCACTTGTCGTAAGACGCTATGGATGGGTTGAAGTTCTGCACGTAGAAGCAAAAGGC [A41G T44A], 0.796.
